The data set concerns the molecule itself. Briefly: SEC-MALS. (Size exclusion chromatography separates by hydrodynamic size, large species first.)

The source of these data is publication PMC3085397 (Immunity, 2011).

B1: FOXP3 forkhead domain F373A (IPEX mutation) (domain or fragment, human)
chain: MRPPFTYATLIRWAILEAPEKQRTLNEIYHWFTRMFAAFRNHPATWKNAIRHNLSLHKCFVRVESEKGAVWTVDELEFRKKR
Turning to B1, the binding result was “binds”.

B2: FOXP3 forkhead domain double mutant (W348Q and M370T) (domain or fragment, human)
chain: MRPPFTYATLIRQAILEAPEKQRTLNEIYHWFTRTFAFFRNHPATWKNAIRHNLSLHKCFVRVESEKGAVWTVDELEFRKKR
Regarding B2, the binding result is reported as “binds”.

B3: FOXP3 forkhead domain F371C (IPEX mutation) (domain or fragment, human)
chain: MRPPFTYATLIRWAILEAPEKQRTLNEIYHWFTRMCAFFRNHPATWKNAIRHNLSLHKCFVRVESEKGAVWTVDELEFRKKR
As a reminder, the stoichiometry N is a count of units in the complex or per binding partner. For B3, the “stoichiometry N” value came out at 2.
